± gives the uncertainty stated by the source.
Assay: protein stability index of a GFP-peptide fusion (yeast GPS) (PSI 1-4); higher = more stable; sorted into four equal gates, so the index is relative within each strain
Outline: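 Tiled 17-residue yeast protein peptides were fused downstream of GFP in a plasmid that also expresses Cherry, and the pooled library was carried in yeast. Mid-log cultures in leucine-free medium were sorted into four equal gates by GFP/Cherry fluorescence ratio, and plasmids from each gate were PCR-amplified and Illumina-sequenced, with reads assigned to strains by barcodes. The protein stability index for each peptide was each gate's read frequency times its gate number, summed.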

Sequence	protein stability index (doa10∆)	protein stability index (pdr5∆)	protein stability index (san1∆)	protein stability index (ubr1∆)
VSTKMHRTIVIRRAYLH [RPS11A]	1.37 ± 0.047	1.14 ± 0.054	1.54 ± 0.087	1.12 ± 0.033
FNFFEPIKEAKIKHGSV [YMR129W/POM152]	2.7 ± 0.054	2.89 ± 0.056	2.54 ± 0.065	2.83 ± 0.046
GIFNLLNTLFNPVTLNE [NUT1]	2.52 ± 0.051	1.93 ± 0.052	1.87 ± 0.075	1.92 ± 0.048
AETLCFTVNVLYPDSSS [RPN3]	2.56 ± 0.055	2.69 ± 0.05	2.97 ± 0.052	2.87 ± 0.041
YPRLQDPSRELNVIIDQ [YCS4]	3.2 ± 0.076	3.09 ± 0.08	3.34 ± 0.052	3.07 ± 0.082
LHVLPTLNSRALSGLYY [SNM1]	2.45 ± 0.052	2.45 ± 0.05	2.12 ± 0.065	2.31 ± 0.042
MLLEEQLEYKRGEIREI [MED7]		2.92 ± 0.28	2.69 ± 0.29	
SNASQMGNTGSGGYDNA [RPB3]	3.43 ± 0.27	3.32 ± 0.17	3.52 ± 0.2	2.5 ± 0.15
APKWYPSEDVAALKKTR [RPL6A]	2.5 ± 0.07	2.97 ± 0.063	2.75 ± 0.049	2.53 ± 0.051
SSLVQKGLETIDNGAES [RPC53]	2.65 ± 0.26	3.02 ± 0.21		
DRQCMIMDELLSSIAER [DIB1]	2.7 ± 0.066	2.78 ± 0.053	2.88 ± 0.061	2.68 ± 0.052
ISPKIWCAGAGTAADTE [PUP1]	2.29 ± 0.1	2.36 ± 0.088	2.42 ± 0.12	2.24 ± 0.08
KDIEKLTNEISDLKGKL [YIL149C/MLP2]	3.04 ± 0.11	3.12 ± 0.049	3.34 ± 0.067	3.17 ± 0.057
SPIKNGSCTRQLAGKSG [YOR098C/NUP1]	3.32 ± 0.084	3.02 ± 0.056	2.35 ± 0.07	3.08 ± 0.069
ERNAFLSDYEVLKFLTD [RPC17]	3.44 ± 0.096	3.04 ± 0.087	3.28 ± 0.05	3.05 ± 0.086
KQINEARDEILPLRLQF [PGD1]	2.13 ± 0.065	2.63 ± 0.077	2.4 ± 0.074	2.77 ± 0.052
SAEEQLRKIDMLQKKLV [SRB7]	2.64 ± 0.09	2.58 ± 0.065	1.88 ± 0.097	2.62 ± 0.043
HQGSGGSVMSASVEIVF [SMC3]	2.05 ± 0.11	2.56 ± 0.081	2.4 ± 0.082	2.26 ± 0.091
LKEYQSKIIVFPRNGKA [RPL13A]	3.04 ± 0.088	2.9 ± 0.091	2.98 ± 0.055	3 ± 0.076
NAEAKGLDATKLYVSHI [RPL17A]	3.23 ± 0.16	3.13 ± 0.092	3.01 ± 0.05	3.03 ± 0.071
EEKGWVPVTKLGRLVKA [RPS2]	3.45 ± 0.086	3.44 ± 0.13	3.51 ± 0.072	3.48 ± 0.072
ILNELEVFIGRVKDQDG [YJR042W/NUP85]	3.06 ± 0.14	3.05 ± 0.18	3 ± 0.12	2.59 ± 0.059
ADNVDKILEQFEYVLYP [FAS2]	2.05 ± 0.067	1.94 ± 0.089	2.17 ± 0.094	2.57 ± 0.08
AMLNLINDNNTRPYILE [YCG1]	3.22 ± 0.11	3.35 ± 0.15	3.08 ± 0.11	3.23 ± 0.19
KLTAERANLRKYREGQV [POP1]	2.91 ± 0.058	3.02 ± 0.07	2.8 ± 0.073	3.01 ± 0.055
DAIAVTKGHGFEGVTHR [RPL3]	3.06 ± 0.11	3.19 ± 0.11	3.37 ± 0.1	3.36 ± 0.077
SLEGCVEMAWIMGFISY [FAS2]	1.97 ± 0.084	1.86 ± 0.061	2.35 ± 0.086	2.27 ± 0.078

Sequence	protein stability index (doa10∆)	protein stability index (pdr5∆)	protein stability index (san1∆)	protein stability index (ubr1∆)
IDKFIMVVQKYKLSTVV [GRR1]	1.73 ± 0.068	1.9 ± 0.081	1.58 ± 0.11	1.86 ± 0.082
GRHHQEEELFQEMIEIS [SRP54]	3.21 ± 0.058	3.3 ± 0.047	3.41 ± 0.038	3.35 ± 0.058
NGVRALFHSCTRIQYVD [GRR1]	2.08 ± 0.088	2.31 ± 0.055	1.86 ± 0.068	2.59 ± 0.051
GKQVFSLLIKPNHNSPV [RPO31]		3.33 ± 0.28		
LTLRKAKAPSGLDQSRI [FAS1]	3.05 ± 0.12	2.98 ± 0.11	3.17 ± 0.12	3.13 ± 0.081
QLYFKKKVNYKVTSYDI [ISW2]	2.63 ± 0.058	2.56 ± 0.052	2.7 ± 0.07	2.72 ± 0.047
QRSRRKFSERRKALPKE [DSN1]	3.47 ± 0.22		3.52 ± 0.099	
RELLKSQVEDFTRIFLP [SIR3]	3.2 ± 0.053	3.1 ± 0.059	3.13 ± 0.053	3.33 ± 0.045
QEYAIEMKIGSIESKLE [SMC1]	2.84 ± 0.091	3.34 ± 0.12	2.74 ± 0.1	2.94 ± 0.093
IQAVFCLTKFQDEEQTE [YCG1]	2.23 ± 0.057	2.24 ± 0.062	2.64 ± 0.057	2.82 ± 0.06
IKAPTVAADGKLVTYIV [YLR335W/NUP2]	1.61 ± 0.07	1.92 ± 0.059	1.55 ± 0.084	2.16 ± 0.048
DYNKKQDRIQDVKLVLA [MED1]	2.69 ± 0.078	2.83 ± 0.074	2.28 ± 0.11	2.28 ± 0.072
LKLENLHVVSKSSIEKD [SIN4]	3.13 ± 0.094	2.74 ± 0.11	3.14 ± 0.1	3.12 ± 0.068
GVQSNGDQFLRYVNLLG [PRE4]	2.6 ± 0.073	2.51 ± 0.05	2.17 ± 0.063	2.31 ± 0.036
SMNKELIAIVSKLLQTT [NUT1]	1.88 ± 0.057	1.79 ± 0.096	2.28 ± 0.14	1.4 ± 0.083
NVSLIKIEGVATPQEAQ [RPL33B]	2.76 ± 0.07	2.78 ± 0.096	2.92 ± 0.074	2.61 ± 0.055
ALLRVTKSKNKTLIGLQ [POP4]	2.71 ± 0.055	2.18 ± 0.053	2.27 ± 0.052	2.47 ± 0.049
VEKTEKPKKPKGRAYKR [RPS30A]	3.16 ± 0.098	3.24 ± 0.091	3.07 ± 0.06	3.05 ± 0.07
PEIGNRKINLFYLYMLV [SWI1]	1.54 ± 0.1	1.32 ± 0.054	1.1 ± 0.22	2.22 ± 0.094
ESNIKMTLEDNNVTSNP [SSN2]	2.91 ± 0.092	3.25 ± 0.11	2.68 ± 0.086	2.95 ± 0.055
PDLNIDRNNSTNQIFQS [SIN4]	3.1 ± 0.29		2.7 ± 0.21	2.19 ± 0.15
TQKRTHVLKKNPLKNKQ [RPL4A]		2.52 ± 0.22		2.99 ± 0.14
SRQVQKRPRSRTLTAVH [RPS7A]	2.54 ± 0.035	2.33 ± 0.034	2.41 ± 0.037	2.03 ± 0.032
VASADYESQTFSSKNEW [PRP8]	2.83 ± 0.098	3.4 ± 0.19	2.85 ± 0.18	2.89 ± 0.13
AIKKSSMKMELLKKELL [SMC2]	2.89 ± 0.17	2.19 ± 0.095	2.78 ± 0.2	2.13 ± 0.081
PMASSSSFGSESLTFNE [SWI1]	3.15 ± 0.043	3.16 ± 0.041	3.14 ± 0.035	3.099 ± 0.029
KVAPAPFGAKSTKSNKA [RPL8B]	2.6 ± 0.085	2.78 ± 0.073	2.74 ± 0.061	2.7 ± 0.043
